Experimental data: patent CN103910796A

Key:
[1] = target: 狂犬疫苗 (rabies vaccine used as ELISA coating antigen); assay: ELISA, rabies vaccine coated on plate, HRP goat anti-human IgG
[2] = target: 狂犬病毒G蛋白 (rabies virus G protein, RVG) (rabies virus (strain not stated))
狂犬病毒(CVS株) = assay: cell-based or functional assay

B1: 全人源的单克隆的抗狂犬病毒中和抗体TRN006 (antibody, V domains shown)
VH: QVQLQESGPGLVKPSETLSLTCTVSGGSISSTTSYWGWIRQPPGKGLEWIGSIYYSGSTYYNPSLKSRVTISVDTSKNQFSLKLRSVTAADTAVYFCARHSVTAAYFNYWGQGTLVSVSS
VL: DIQMTQSPSSVSASVGDRVTITCRASEGISSWLAWYQQKPGRAPKVLIHGASSLQSGVPSRFSGSGSGADFTLSISSLQPEDFATYYCQQANSFPYTFGQGTKLEIKR
In the case of B1, the antibody concentration at which binding is still seen [1] is reported as 0.0024 µg/mL, the dilution fold at which binding is still seen [1] is reported as 50000 fold and the fold of MFI over negative control antibody [2] is reported as 300 fold. It also gave a fold of MFI over standard serum [2] of 17 fold and a 保护效价 (RFFIT, Reed & Muench法) (狂犬病毒(CVS株)) of 3040 IU/ml.
